Tests used:
human NKG2D on cells = target: T1, human NKG2D on cells (human, UniProt P26718 1-216); experiment: cell-based or functional assay
T1 sequence (looked up): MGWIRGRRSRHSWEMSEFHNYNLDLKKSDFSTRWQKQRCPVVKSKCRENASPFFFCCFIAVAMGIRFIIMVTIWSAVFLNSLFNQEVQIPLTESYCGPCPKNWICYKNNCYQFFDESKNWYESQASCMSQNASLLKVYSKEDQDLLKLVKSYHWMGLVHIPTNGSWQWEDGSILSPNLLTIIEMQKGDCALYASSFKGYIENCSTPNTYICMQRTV

[1] = target: human EGFR (wild type) on cells (human, UniProt P00533 25-1210); experiment: cell-based or functional assay
[2] = target: T2, cynomolgus monkey NKG2D on NK cells (cynomolgus monkey, UniProt P61252 1-216); experiment: cell-based or functional assay
T2 sequence (looked up): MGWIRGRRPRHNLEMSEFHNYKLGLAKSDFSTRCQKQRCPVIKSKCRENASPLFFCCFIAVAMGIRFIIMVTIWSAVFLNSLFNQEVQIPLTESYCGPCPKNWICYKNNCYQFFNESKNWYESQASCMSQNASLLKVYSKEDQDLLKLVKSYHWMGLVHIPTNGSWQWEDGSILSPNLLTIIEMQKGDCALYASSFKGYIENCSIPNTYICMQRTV

[3] = target: T3, purified recombinant human FcRn (human, UniProt P55899 24-297; P61769 21-119); experiment: SPR (Biacore 8K), 25 C, pH 6.0; pH 6.0
T3 construct: also called neonatal Fc receptor

EC50, IFNγ release from NK cells (AlphaLISA) in the presence of HT29 cells (human NKG2D on cells): 1.6 nM
EC50, IFNγ release from NK cells (AlphaLISA) in the presence of NCI-H1975 cells (human NKG2D on cells): 0.88 nM
EC50, NK cell degranulation and cytokine production, human PBMCs with 786-O [1]: 0.089 nM
EC50, NK cell degranulation and cytokine production, cynomolgus monkey PBMCs with 786-O [2]: 0.023 nM
EC50, NK cell degranulation and cytokine production, cynomolgus monkey PBMCs with NCI-H1975 [2]: 0.037 nM
Kd [3]: 1000 nM
B1: EGFR-TriNKET (bispecific antibody, human IgG1, kappa)
chain: DIQMTQSPSSLSASVGDRVTITCQASQDISNYLNWYQQKPGKAPKLLIYDASNLETGVPSRFSGSGSGTDFTFTISSLQPEDIATYYCQHFRHLPLAFGCGTKVEIKGGGGSGGGGSGGGGSGGGGSQVQLQESGPGLVKPSETLSLTCTVSGGSVSSGDYYWTWIRQSPGKCLEWIGHIYYSGNTNYNPRLKSRLTISIDTSKTQFSLKLSSVTAADTAIYYCVRDRVTGAFDIWGQGTMVTVSSGSDKTHTCPPCPAPELLGGPSVFLFPPKPKDTLMISRTPEVTCVVVDVSHEDPEVKFNWYVDGVEVHNAKTKPREEQYNSTYRVVSVLTVLHQDWLNGKEYKCKVSNKALPAPIEKTISKAKGQPREPRVYTLPPCRDELTKNQVSLTCLVKGFYPSDIAVEWESNGQPENNYKTTPPVLVSDGSFTLYSKLTVDKSRWQQGNVFSCSVMHEALHNHYTQKSLSLSPG
heavy: EVQLVESGGGLVKPGGSLRLSCAASGFTFSSYSMNWVRQAPGKGLEWVSSISSSSSYIYYADSVKGRFTISRDNAKNSLYLQMNSLRAEDTAVYYCARGAPIGAAAGWFDPWGQGTLVTVSSASTKGPSVFPLAPSSKSTSGGTAALGCLVKDYFPEPVTVSWNSGALTSGVHTFPAVLQSSGLYSLSSVVTVPSSSLGTQTYICNVNHKPSNTKVDKKVEPKSCDKTHTCPPCPAPELLGGPSVFLFPPKPKDTLMISRTPEVTCVVVDVSHEDPEVKFNWYVDGVEVHNAKTKPREEQYNSTYRVVSVLTVLHQDWLNGKEYKCKVSNKALPAPIEKTISKAKGQPREPQVCTLPPSRDELTENQVSLTCLVKGFYPSDIAVEWESNGQPENNYKTTPPVLDSDGSFFLYSWLTVDKSRWQQGNVFSCSVMHEALHNHYTQKSLSLSPG
light: DIQMTQSPSSVSASVGDRVTITCRASQGISSWLAWYQQKPGKAPKLLIYAASSLQSGVPSRFSGSGSGTDFTLTISSLQPEDFATYYCQQGVSFPRTFGGGTKVEIKRTVAAPSVFIFPPSDEQLKSGTASVVCLLNNFYPREAKVQWKVDNALQSGNSQESVTEQDSKDSTYSLSSTLTLSKADYEKHKVYACEVTHQGLSSPVTKSFNRGEC
notes: also called EGFR-TriNKET-3

Source: US20230250176A1 (DRAGONFLY THERAPEUTICS, published 2023)
